Reference: the supplement of paper PMC6757056
± gives the standard deviation of the averaged measurements.

B1: library; a variant is named by its letters at N, in order (parent)
chain: GCUGUCACCGAGAAACUGUGAAGUAUAUCUUAAACCUGGGCACUUAAAAGAUAUAUGGAGUUAGUAGUGCAACCUGCUCGGUCUGAUGAGUCCNNNNNNGGACGAAACAGC

Columns and labels:
cyclic di-GMP [1] = variants of: B1; assay: FACS-Seq fitted mean relative fluorescence mCherry/BFP without ligand (log10 relative fluorescence); HEK293T; ligand: cyclic di-GMP (c-di-GMP-II aptamer); higher = higher reporter protein expression; conditions: ligand present: no
Description: (§1)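 Hammerhead (sTRSV) ribozyme switch libraries with a ligand aptamer grafted on stem I and a randomized N4-6 loop II, cloned into the 3' UTR of mCherry and transiently transfected into HEK293T cells; RNA-Seq 72 h post transfection with ligand added 1 h before transfection; RNA read count / plasmid DNA read count normalized to the non-cleaving sTRSVctl (x100), log10; sequences with >100 DNA reads. FACS-Seq: lentiviral library sorted into 6 bins after 48 h ligand, log-normal fit mean of mCherry/BFP scaled to controls. Printed sequences are partial switch sequences.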

cyclic di-GMP [2] = variants of: B1; assay: normalized RNA/DNA level without ligand (relative to sTRSVctl = 100) (log10 (% of sTRSVctl)); HEK293T; ligand: cyclic di-GMP (c-di-GMP-II aptamer); higher = less ribozyme self-cleavage, higher mRNA level; conditions: reporter: mCherry (pCS4076), ligand present: no
Description: as §1

cyclic di-GMP [3] = variants of: B1; assay: FACS-Seq fitted mean relative fluorescence mCherry/BFP with ligand (log10 relative fluorescence); HEK293T; ligand: cyclic di-GMP (c-di-GMP-II aptamer); ligand concentration (+) FACS-Seq: 1 mM; higher = higher reporter protein expression; conditions: ligand present: yes
Description: as §1

cyclic di-GMP [4] = variants of: B1; assay: normalized RNA/DNA level with ligand (relative to sTRSVctl = 100) (log10 (% of sTRSVctl)); HEK293T; ligand: cyclic di-GMP (c-di-GMP-II aptamer); ligand concentration (+) RNA-Seq: 1 mM; higher = less ribozyme self-cleavage, higher mRNA level; conditions: reporter: mCherry (pCS4076), ligand present: yes
Description: as §1

| Variant | FACS-Seq fitted mean (log10) (cyclic di-GMP [1]) | normalized RNA/DNA level without ligand (log10) (cyclic di-GMP [2]) | FACS-Seq fitted mean (log10) (cyclic di-GMP [3]) | normalized RNA/DNA level with ligand (log10) (cyclic di-GMP [4]) |
| --- | --- | --- | --- | --- |
| AAGGGG | -0.499 ± 0.044 | 1.47 ± 0.087 | -0.103 ± 0.12 | 1.63 ± 0.1 |
| CAGACA | -0.617 ± 0.0047 | 1.33 ± 0.059 | -0.36 ± 0.034 | 1.51 ± 0.13 |
| CAGACU | -0.00398 ± 0.14 | 1.584 ± 0.0086 | 0.149 ± 0.04 | 1.72 ± 0.1 |
| CACAGA | -0.384 ± 0.025 | 1.53 ± 0.058 | -0.0508 ± 0.039 | 1.74 ± 0.1 |
| CACAGU | -0.189 ± 0.13 | 1.74 ± 0.045 | 0.105 ± 0.062 | 1.85 ± 0.064 |
| UAGUGA | -0.51 ± 0.069 | 1.626 ± 0.0075 | -0.218 ± 0.016 | 1.77 ± 0.15 |
| UAGUGG | -0.133 ± 0.082 | 1.71 ± 0.064 | 0.162 ± 0.086 | 1.84 ± 0.069 |
| AAGCCA | -0.228 ± 0.096 | 1.63 ± 0.029 | -0.278 ± 0.12 | 1.79 ± 0.16 |
| AAGCCU | 0.14 ± 0.18 | 1.705 ± 0.014 | 0.3704 ± 0.0037 | 1.84 ± 0.11 |
| AAGAUA | -0.4038 ± 0.0036 | 1.42 ± 0.094 | -0.0468 ± 0.065 | 1.63 ± 0.063 |
| CACAAA | -0.504 ± 0.031 | 1.24 ± 0.14 | -0.278 ± 0.055 | 1.46 ± 0.12 |
| AACACU | 0.049 ± 0.17 | 1.68 ± 0.033 | 0.373 ± 0.032 | 1.81 ± 0.096 |
| AACACA | -0.289 ± 0.0062 | 1.54 ± 0.031 | -0.0564 ± 0.0031 | 1.75 ± 0.12 |
| UAGGAA | -0.246 ± 0.044 | 1.49 ± 0.07 | -0.00386 ± 0.085 | 1.68 ± 0.16 |
| CAAUGU | 0.349 ± 0.071 | 1.75 ± 0.019 | 0.4491 ± 0.001 | 1.87 ± 0.11 |
| AAGCAA | -0.642 ± 0.0094 | 1.56 ± 0.039 | -0.454 ± 0.097 | 1.72 ± 0.062 |
| AAGCAC | -0.391 ± 0.077 | 1.678 ± 0.0034 | -0.0705 ± 0.025 | 1.82 ± 0.11 |
| CACGAA | -0.353 ± 0.036 | 1.33 ± 0.14 | -0.00961 ± 0.027 | 1.53 ± 0.094 |
| UACUUU | -0.1 ± 0.037 | 1.68 ± 0.019 | 0.192 ± 0.048 | 1.84 ± 0.13 |
| CAGGAA | -0.629 ± 0.038 | 1.4 ± 0.099 | -0.392 ± 0.12 | 1.51 ± 0.051 |
| CAGUUU | -0.341 ± 0.0054 | 1.5 ± 0.0081 | -0.0345 ± 0.033 | 1.67 ± 0.12 |
| CAGUUC | -0.4497 ± 0.0028 | 1.66 ± 0.038 | -0.1164 ± 0.00072 | 1.82 ± 0.097 |
| CAGUUA | -0.724 ± 0.01 | 1.28 ± 0.15 | -0.4923 ± 0.0038 | 1.42 ± 0.041 |
| GAGACU | -0.22 ± 0.13 | 1.791 ± 0.013 | -0.00318 ± 0.073 | 1.87 ± 0.12 |

| Variant | FACS-Seq fitted mean (log10) (cyclic di-GMP [1]) | normalized RNA/DNA level without ligand (log10) (cyclic di-GMP [2]) | FACS-Seq fitted mean (log10) (cyclic di-GMP [3]) | normalized RNA/DNA level with ligand (log10) (cyclic di-GMP [4]) |
| --- | --- | --- | --- | --- |
| CAGCCA | -0.196 ± 0.089 | 1.42 ± 0.05 | 0.0333 ± 0.08 | 1.67 ± 0.14 |
| UAGUUG | 0.116 ± 0.21 | 1.7 ± 0.05 | 0.29 ± 0.039 | 1.81 ± 0.082 |
| UAGUUU | -0.234 ± 0.073 | 1.675 ± 0.0087 | 0.0254 ± 0.084 | 1.85 ± 0.081 |
| UACGGA | -1.08 ± 0.21 | 1.61 ± 0.053 | -0.994 ± 0.18 | 1.76 ± 0.1 |
| UACCCU | -0.513 ± 0.0088 | 1.74 ± 0.024 | -0.201 ± 0.055 | 1.87 ± 0.09 |
| UACCCA | -0.0154 ± 0.2 | 1.73 ± 0.074 | 0.278 ± 0.097 | 1.86 ± 0.13 |
| GAUAAU | -0.142 ± 0.21 | 1.59 ± 0.068 | 0.0798 ± 0.079 | 1.75 ± 0.075 |
| GAUAAA | -0.481 ± 0.013 | 1.47 ± 0.065 | -0.1618 ± 0.00059 | 1.63 ± 0.1 |
| AACGAU | -0.207 ± 0.075 | 1.57 ± 0.052 | 0.0583 ± 0.17 | 1.76 ± 0.096 |
| AACGAG | -0.834 ± 0.078 | 1.53 ± 0.1 | -0.763 ± 0.099 | 1.71 ± 0.069 |
| GAUACA | -0.276 ± 0.023 | 1.65 ± 0.032 | -0.124 ± 0.088 | 1.8 ± 0.11 |
| UACGUG | -0.864 ± 0.019 | 1.69 ± 0.031 | -0.635 ± 0.083 | 1.85 ± 0.12 |
| GAGAUU | -0.388 ± 0.22 | 1.71 ± 0.035 | -0.0338 ± 0.038 | 1.82 ± 0.1 |
| GAGCAG | -0.832 ± 0.019 | 1.9 ± 0.058 | -0.596 ± 0.16 | 1.95 ± 0.13 |
| CAGCUU | -0.396 ± 0.075 | 1.62 ± 0.095 | -0.151 ± 0.049 | 1.75 ± 0.091 |
| CAGCUA | -0.432 ± 0.009 | 1.37 ± 0.077 | -0.148 ± 0.079 | 1.56 ± 0.076 |
| CAGCUG | 0.189 ± 0.018 | 1.767 ± 0.0057 | 0.403 ± 0.038 | 1.84 ± 0.12 |
| AACGCU | -0.0259 ± 0.099 | 1.704 ± 0.013 | 0.296 ± 0.0034 | 1.86 ± 0.076 |
| AACGCC | -0.235 ± 0.048 | 1.75 ± 0.022 | 0.192 ± 0.046 | 1.9 ± 0.15 |
| AAGGAA | -0.627 ± 0.048 | 1.35 ± 0.13 | -0.409 ± 0.03 | 1.51 ± 0.069 |
| CACGGA | -0.398 ± 0.042 | 1.48 ± 0.092 | 0.0123 ± 0.14 | 1.72 ± 0.06 |
| AAGCGA | -0.459 ± 0.0051 | 1.44 ± 0.1 | -0.202 ± 0.029 | 1.65 ± 0.13 |
| AACCUU | -0.0813 ± 0.093 | 1.66 ± 0.039 | 0.232 ± 0.016 | 1.82 ± 0.11 |
| CACCCU | -0.383 ± 0.019 | 1.65 ± 0.082 | -0.109 ± 0.033 | 1.75 ± 0.038 |

| Variant | FACS-Seq fitted mean (log10) (cyclic di-GMP [1]) | normalized RNA/DNA level without ligand (log10) (cyclic di-GMP [2]) | FACS-Seq fitted mean (log10) (cyclic di-GMP [3]) | normalized RNA/DNA level with ligand (log10) (cyclic di-GMP [4]) |
| --- | --- | --- | --- | --- |
| AACUAA | -0.473 ± 0.029 | 1.51 ± 0.035 | -0.168 ± 0.1 | 1.74 ± 0.11 |
| UACUAU | -0.131 ± 0.0047 | 1.67 ± 0.051 | 0.0664 ± 0.13 | 1.83 ± 0.15 |
| CACGCA | -0.406 ± 0.0063 | 1.61 ± 0.04 | -0.00856 ± 0.11 | 1.79 ± 0.11 |
| AAGACA | -0.415 ± 0.14 | 1.55 ± 0.044 | -0.0423 ± 0.083 | 1.74 ± 0.1 |
| AAGACG | -0.185 ± 0.037 | 1.54 ± 0.084 | 0.133 ± 0.15 | 1.73 ± 0.097 |
| AACGGA | -0.525 ± 0.046 | 1.32 ± 0.14 | -0.253 ± 0.067 | 1.53 ± 0.13 |
| CACUGU | -0.215 ± 0.023 | 1.709 ± 0.017 | 0.0975 ± 0.08 | 1.83 ± 0.11 |
| UAGUCC | 0.148 ± 0.14 | 1.72 ± 0.1 | 0.203 ± 0.041 | 1.85 ± 0.086 |
| GAGUAG | -0.7206 ± 0.0025 | 1.84 ± 0.075 | -0.563 ± 0.061 | 1.89 ± 0.12 |
| GAGUAA | -0.0125 ± 0.15 | 1.71 ± 0.027 | 0.165 ± 0.029 | 1.81 ± 0.069 |
| AACAUC | -0.233 ± 0.056 | 1.593 ± 0.012 | 0.0469 ± 0.033 | 1.75 ± 0.13 |
| AACAUG | 0.0898 ± 0.039 | 1.54 ± 0.053 | 0.286 ± 0.039 | 1.72 ± 0.081 |
| CAUAAU | -0.282 ± 0.056 | 1.46 ± 0.092 | -0.0129 ± 0.014 | 1.63 ± 0.072 |
| CAUAAA | -0.673 ± 0.064 | 1.23 ± 0.14 | -0.363 ± 0.021 | 1.42 ± 0.066 |
| CACACU | -0.437 ± 0.0083 | 1.52 ± 0.12 | -0.0902 ± 0.05 | 1.7 ± 0.067 |
| CACACA | -0.628 ± 0.032 | 1.45 ± 0.11 | -0.354 ± 0.056 | 1.64 ± 0.089 |
| AAAUGU | -0.132 ± 0.022 | 1.54 ± 0.03 | 0.136 ± 0.093 | 1.78 ± 0.09 |
| AAAUGC | -0.0259 ± 0.11 | 1.642 ± 0.01 | 0.294 ± 0.022 | 1.79 ± 0.09 |
| AAUACG | -0.6 ± 0.066 | 1.6 ± 0.058 | -0.2 ± 0.094 | 1.78 ± 0.06 |
| CAGUAA | -0.526 ± 0.094 | 1.14 ± 0.14 | -0.22 ± 0.0072 | 1.33 ± 0.073 |
| CAGUAU | -0.4929 ± 0.0046 | 1.4 ± 0.1 | -0.197 ± 0.0062 | 1.58 ± 0.17 |
| GAGUUG | -0.0245 ± 0.095 | 1.8 ± 0.04 | 0.211 ± 0.021 | 1.92 ± 0.12 |
| GAGUUA | -0.199 ± 0.084 | 1.74 ± 0.033 | -0.129 ± 0.019 | 1.82 ± 0.14 |
| GACACU | -0.276 ± 0.038 | 1.705 ± 0.016 | -0.141 ± 0.073 | 1.83 ± 0.12 |
